Measurements: the supplement of paper PMC9170038

Tested on: MS2 coat protein
Experiment: apparent KD of MS2 coat protein; designed switch direction (-1 OFF switch, 1 ON switch): -1; higher = weaker reporter binding
Procedure, shortened: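 An oligonucleotide input, 200 uM small-molecule ligand, or no input was present during titration of SNAP-549-labelled MS2 coat protein, which was doubled from 0.7 or 1.5 nM to 3 µM. Designed RNA switches had been transcribed on Illumina chips by stalled E. coli RNA polymerase. Apparent KD per design is the median over clusters of curves fitted to normalised cluster fluorescence.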

[1] = input ligand: microRNA oligo, concentration not stated
[2] = Eterna round: R95, input ligand: microRNA oligo, concentration not stated
[3] = Eterna round: R95, input ligand: FMN 200 uM
[4] = Eterna round: R95, input ligand: none

Sequence	apparent KD of MS2 coat protein (input ligand: FMN 200 uM)	apparent KD of MS2 coat protein (input ligand: none)	apparent KD of MS2 coat protein [1]	apparent KD of MS2 coat protein [2]	apparent KD of MS2 coat protein [3]	apparent KD of MS2 coat protein [4]
AAUAAUAAAGUCAGGAUAUCUAGAGCUUCGGCUCUAGAGAAGGGACAUGAGGAUCACCCAUGUCACUCAAUAAU [BmEx4/3-D1] (Eterna round: R97, puzzle: Brourd's mod of Exclusion 4)	21.6 nM	15.1 nM	–	–	–	–
AAUUAAUGUGUGAGGAUAUUGAUGGAAUGACUUAUUAAGAAGGCACAUGAGGAUCACCCAUGUGGGAAGUCACG [JR_BMEx4_Sub015] (Eterna round: R97, puzzle: Brourd's mod of Exclusion 4)	27.6 nM	18.6 nM	–	–	–	–
UCAGUGCUGCGAGGAUAUACAUGAGGAUCACCCAUGUAAAUGUGUGAGGCUUUGCCUCACACAAUGUAGAAGGCGCAGUACUGU [Mat - Exclusion NG 2 - Mod of JL - D3] (Eterna round: R96, puzzle: Exclusion NG 2)	17.2 nM	14.3 nM	11.1 nM	–	–	–
AACACAUGAGGAUAUACAUGAGGAUCACCCAUGUUGUCACUACACCCGGGUGCCUGGUGUAGAAGGCAUGAAGA [Eternabot (Original) Solution 30] (Eterna round: R97, puzzle: Exclusion 3)	71.2 nM	34.1 nM	–	–	–	–
GAAGCACAUGAGGAUCACCCAUGUAAGGAUAUACGUCUGGUCCGGCCGGACCAGUACCGUAGAAGGUACGUAAA [Excls-Ia] (puzzle: Exclusion 1)	–	–	–	18.1 nM	–	–
ACACAACAUGAGGAUCACCCAUGUCAGGAUAUGCAGAACAAGAACAAGACAAGACAGAGCAGAAGGGACAACAC [Ex 1 M5] (puzzle: Exclusion 1)	–	–	–	32.8 nM	–	–
AUGGGUCCUCACGGAGCUACAUGAGGAUCACCCAUGUGUAUUGAGGAUAUCCACUGCCGACGGCUGGAGAAGGCAGUGUACUGU [Ex NG3 #93] (Eterna round: R96, puzzle: Exclusion NG 3)	97.8 nM	109 nM	61.5 nM	–	–	–
GCAUGCUAUGUCAGGAUAUACCUCUGGAUACAUAGGUAGAAGGGACAUGAGGAUCACCCAUGUCCUAAACAUGC [Fiskers BMX 4 - 26] (puzzle: Brourd's mod of Exclusion 4)	–	–	–	11.4 nM	–	–
AAUAACAGAGGAUAUACUGUUUUAUGUAUUUAUUAUUUUAAACAUGAGGAUCACCCAUGUAGAAGGCUGAUUAA [JMF 43] (puzzle: Exclusion 2)	–	–	–	27.4 nM	–	–
GUCGUGCGGCUUUGCUGUACGAGUACAUGAGGAUCACCCAUGUAGGAUAUGGUUCGCUUUGCGUGCCAGAAGGGCGUGCGUUGU [Excl-NG3-LRO13] (Eterna round: R96, puzzle: Exclusion NG 3)	–	–	18.9 nM	–	–	–
UAAAAGAUGGACGAACCACAUGAGGAUCACCCAUGUCGAGGUUAGGAUAUGUCGUCCAUGGGACCACAGAAGGGACUGAAGACU [Teraqu] (Eterna round: R96, puzzle: Exclusion NG 3)	16 nM	20.2 nM	11.3 nM	–	–	–
GCAGCUAAUCGAGGAUAUCAGCACGUUUAGUGCUGAGAAGGCGACAUGAGGAUCACCCAUGUGAUCAAUUAAUAUUAAUGCUGC [ENG1/11-A2] (Eterna round: R96, puzzle: Exclusion NG 1)	1270 nM	659 nM	344 nM	–	–	–
GCUCUGUGAGGAUAUAUAACGCAUUGGAUAGUGAAACUUAGACAUGAGGAUCACCCAUGUAGAAGGUACGGUAG [Eternabot (L2) Solution 76] (Eterna round: R97, puzzle: Exclusion 2)	77.8 nM	99 nM	–	–	–	–
AAGUUGCGAGGAUAUCGUAAGAUGGACAUGAGGAUCACCCAUGUGGUGCUUUUUUAUUGGCGAGAAGGCGCAUAAA [Zaiseren] (puzzle: Exclusion 5)	–	–	–	166 nM	134 nM	164 nM
UCGUCGUCUGCGCCUGGACACAUGAGGAUCACCCAUGUCCCUAGCGGUUUACCGCUGUGACAAAACAAGCUGCUCGU [Eternabot (Original) Solution 25] (Eterna round: R97, puzzle: Sensor, turn-off variant 1)	145 nM	185 nM	–	–	–	–
CCCAGUUAGUCAGGAUAUCAUACAUGAGGAUCACCCAUGUAAUAAAUGAGGAUUUCGGGUGUCUAUGAGAAGGGACGGAUAGGC [Ostracism 28 - Jieux - Exclusion NG 2] (Eterna round: R96, puzzle: Exclusion NG 2)	29.6 nM	24.5 nM	18.8 nM	–	–	–
CUUUUGUGAGGAUAUUAGUAGUAAAUAAAUAAAAUUUCUACUGAGAAGGCACAUGAGGAUCACCCAUGUUCCUC [salish99_ex4_r3_061] (Eterna round: R96, puzzle: Exclusion 4)	347 nM	33.9 nM	34 nM	–	–	–

Sequence	apparent KD of MS2 coat protein (input ligand: FMN 200 uM)	apparent KD of MS2 coat protein (input ligand: none)	apparent KD of MS2 coat protein [1]	apparent KD of MS2 coat protein [2]	apparent KD of MS2 coat protein [3]	apparent KD of MS2 coat protein [4]
AUAAAUGAUGAGGAUAUCACUAGCGAUAGCUAGUGAGAAGGCAUCACAUGAGGAUCACCCAUGUGAUCCAAUAA [Mod6 Ex6/6-A4 by Brourd] (Eterna round: R97, puzzle: Exclusion 6)	479 nM	359 nM	–	–	–	–
UGCCUUUGAGGAUAUACAUAGAAAUAGAUUCAUGUAAAACUACAUGAGGAUCACCCAUGUAGAAGGCAAGGGCU [Mat - Exclusion 2 - JL Mod - D52] (Eterna round: R97, puzzle: Exclusion 2)	83.6 nM	24 nM	–	–	–	–
GGUUGGCGAGGAUAUACAUGAGGAUCACCCAUGUGAGAGAAAAAAGUGAGGAAGAAAAGUAGAAGGCGCUGACU [salish99_ex3_r3_047] (puzzle: Exclusion 3)	–	–	–	53.2 nM	221 nM	50.1 nM
GUAAUGAUUGUGAGGAUAUUUCAUAGAUAGAUAUUAGAGAAGGUACAUGAGGAUCACCCAUGUGUGAUCAUACA [Brourd's EX4 #73] (Eterna round: R97, puzzle: Brourd's mod of Exclusion 4)	672 nM	1050 nM	–	–	–	–
CGUCGAAAUGUAGGAUAUCUGCACGAUUAGUGCAGAGAAGGACAUGAGGAUCACCCAUGUAGAUCACGACGAAUUAAUUUAAUU [ENG1/5-C1] (Eterna round: R96, puzzle: Exclusion NG 1)	–	–	48.4 nM	–	–	–
ACAAUUAUGACAGGAUAUAGUUUUUGUUGGUCACUAGAAGGGUCUAUGCACAUGAGGAUCACCCAUGUUCUUUUUAUUUGCGAU [JR_ExcNG1_Sub017] (Eterna round: R96, puzzle: Exclusion NG 1)	29.9 nM	39.9 nM	27.1 nM	–	–	–
UUUACAAGCUAUAGAUCCCACAUGAGGAUCACCCAUGUAGCUGCCAACGGUAGCUUUUUAUGGUUUGCUCGUCUUAU [JL TOV1 3.34] (Eterna round: R97, puzzle: Sensor, turn-off variant 1)	424 nM	1210 nM	–	–	–	–
GUCAGCUCGUGAGGAUAUAUUAACAUGAGGAUCACCCAUGUAAGAUCAGGCUUCGGCCAAUGUUAAUAGAAGGCACGAGCUGAC [ENG2/12-A1] (Eterna round: R96, puzzle: Exclusion NG 2)	739 nM	72.9 nM	38.9 nM	–	–	–
CCCGCAGGUUUUUUGCUCGACAUGAGGAUCACCCAUGUUGUAUGGGUUGUGUGUGUGUGGUGCAUAUAUAUGGUCCU [-25.6, -47.7 kcal, A 16%] (Eterna round: R97, puzzle: Sensor, turn-off variant 1)	427 nM	655 nM	–	–	–	–
AGUACUUUCACGAAAGUGAAAGUACAAUAAGCUUGUGGAACAUGAGGAUCACCCAUGUCCUCAUAAGCUCGUCUUAU [Mat - Sensor v3 - Turn-off var 2 - D32] (puzzle: Sensor v3, turn-off variant 2)	–	–	–	72.5 nM	17.3 nM	15.5 nM
GGUGGCUGCGUGAGACAUGAGGAUCACCCAUGUUACCGAACAAAGGAUAUAGAAGCACACAGCUACUAGAAGGUUGAAAAGAAA [Requen] (Eterna round: R96, puzzle: Exclusion NG 3)	12.2 nM	19.6 nM	16.2 nM	–	–	–
GCAGCAUAGUUAACAGACUGUUACAUGAGGAUCACCCAUGUACAGGAUAUGGUCUGGAUUACAGGCCAGAAGGGUACAAGCUGC [Eli exng3 - 019] (Eterna round: R96, puzzle: Exclusion NG 3)	10.1 nM	11.6 nM	8.94 nM	–	–	–
CGAAAGGUAGGAUAUACGAAGAAAAAGGGUAGAAUAAUAACACAUGAGGAUCACCCAUGUAGAAGGACCAAAGG [Mat - Exclusion 2 - Mod of my Tesla design - D12] (puzzle: Exclusion 2)	–	–	–	19.4 nM	13.3 nM	33.2 nM
GCAUGGCGAGGAUAUACAUGAGGAUCACCCAUGUGAGAAUAAGAAGUGAGGAAGAAAAGUAGAAGGCGCUGUGG [Mat - Exclusion 3 - Mod of Salish D65] (puzzle: Exclusion 3)	–	–	–	73.8 nM	173 nM	84.5 nM
UCAAGUAUGUAGGAUAUCGAUGUCGAAAGACAUCGAGAAGGACGUACAUGAGGAUCACCCAUGUAACUUGCAUG [Exclusion 6 - B - 10:f] (puzzle: Exclusion 6)	–	–	–	44.6 nM	32.2 nM	42.3 nM
CCGGAAAUGAAGGAUAUAGGUGUCGAUAGACUCCUAGAAGGUCAUACAUGAGGAUCACCCAUGUGUCCUACCGG [Fiskers Ex 6 - 76] (puzzle: Exclusion 6)	–	–	–	15.6 nM	–	–
